# The supplement of paper PMC9170038
# System: K4 kissing-loop RNA reporter
# Assay: apparent KD of K4 kissing-loop reporter; higher = weaker reporter binding
# Conditions: Eterna round: R107
# Procedure: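 RNA-MaP round R107: designed RNA switches with theophylline, tryptophan, arginine or FMN aptamers are transcribed on-chip within common flanks. They are titrated with a labelled K4 kissing-loop RNA reporter in RNA-MaP buffer (100 mM Tris pH 7.5, 80 mM KCl, 4 mM MgCl2), without ligand or with the indicated ligand. Median apparent KD per design.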
# [1] = input ligand: theophylline 20 uM
# [2] = input ligand: tryptophan 2.4 mM
# 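Note: bound reporter read as fluorescence of individual clusters on recovered sequencing chips by microscopy, with normalized cluster intensities fitted with a binding model.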
Sequence,apparent KD of K4 kissing-loop reporter (input ligand: FMN 200 uM) [nM],apparent KD of K4 kissing-loop reporter (input ligand: arginine 13.2 mM) [nM],apparent KD of K4 kissing-loop reporter (input ligand: none) [nM],apparent KD of K4 kissing-loop reporter [1] [nM],apparent KD of K4 kissing-loop reporter [2] [nM]
UGAUACCAGACUGAUACCAGCCACAGAGUCAAAGACUCUGAUAAAGGUACCAGUGAUGUUGGCCCUUGGCAGCAGUCUGGUAUCU [TheoBX 17 #SwitchBubble #StaticStem],158,126,143,151,141
UGAUACCAGGCGGCCGCCACUCCUACAGGUCAAAGACCUGUAAAGCUGGUUCUCCAGUGAUGUUGGAGGACCGGGCCUGGUAUCU [FiskerMod 29 - Jieux - Exclusion - Tryptophan B],206,156,179,150,428
UGAUAGGACAGAAGGAGCGGAAGUGAUGUUUCCAAAAGGAAAGGUCGACAAAGUCGACCCUUCCAGGUAGGUCGCUGUCCUAUCU [ArgBX 8 #Palindromic #SwitchBubble #StaticStem],88.2,90.5,82.9,84.9,81.5
UGAUAGGACAGAAGGAGCGGAAUCCUGUCAAAGACAGGAAAAUAAAUAAAAGGAGUGAUGUUCCAGGUAGGUCGCUGUCCUAUCU [ArgBX 19 #SwitchBubble #StaticStem],271,210,248,243,215
UGAUAGGACAGAAGGAGCGGAAUGCUAGUCAAAGACUAGCAACGUUAAACAGGAGUGAUGUUCCAGGUAGGUCGCUGUCCUAUCU [ArgBX 22 #SwitchBubble #StaticStem],143,124,135,140,113
UGAUUGAACUGAAGGAGCGGCAAGAGAGAAGGAAAUAUAGUGAUGUUAUAUAAGAGAGAGAGCCAGGUAGGUCGCAGAGGGAGGA [ExArgB.D],198,113,159,134,151
UGAUUGCCAGUGAUGUUGGCAUAAACUGAAGGAGCGCGUGAAAACGCAGGUAGGUCGCAGUACCAUGCCAAUUGAUCGAAAGAUC [KL-XArg-A2],143,150,155,169,141
UGAUUGGCAAAAGUAGUGAUGUUACGAAUAUAGGAUAUUAGAGGAAUAAGAAGGAUAAGGGAGAAAUAGGUAAAUUGUUGGUUGG [whbob_SS_FMNA__2th171],45.6,48.4,285,150,70.3
UGAUUGGCGAAAGUAGUGAUGUUACGAAUAUAGGAUAUUAGAGGAAUAAGAAGGAUAAGGGAGAAAUAGGUAAAUUGUUGGUUGG [whbob_SS_FMNA__2th170],132,79.7,128,126,100
UGCCGCAAGGCGAGCGCUCCCACUCCGGAAGGAGCGCCCGCAAGGGCAGGUAGGUCGCCGGAGUGAUGUUCCGGUGGAGGGCUCG [#2 Exclusion - Arginine A Attempt #25 (Inspired by Omei)],201,188,174,164,157
UGGAGUUGACGAAAAGUCAACUCCAGAGAAGGAGCGGACGAAAGUCCAGGUAGGUCGCUCACUACCAGUGAUGUUGGUACUUAAA,68.4,243,170,137,139
UGGAUAUAGUGAUGUUAUAUAGAGAUGGAUACCAGCGAAGAGAAUUGCCCUUGGCAGCCGAAAGAAGUAUCAUUAGAGAAGAAUG [ExTheophyl.Ah],254,213,252,261,186
UGGAUAUCGUUUAGUCUGGUGAGCUCAGAUACCAGACUAGCGAUAGUCCCUUGGCAGCUGAUUAUGAUUGAGUGAUGUUCAAUCG [Theo A Ex t9b],168,142,168,151,157
UGGGAUGUUAAAGGAUAUAGCAGGUGAUAUAAGAAAGUGAGUGAUGUUUAUGUAGAUGAUGAUAUGUUAGAAGGUUAACAAAACG [abcdefghi],427,258,340,318,282
UGGGUGUAGUGAUGUUAUAUAGAGAGUGAUACCAGUUUAGAGAGGAACCCUUGGCAGCAUAGAAGAGUAUCAUUGGAGGAGGAGG [ExTheophyl.Aw],677,505,696,606,433
UGUACCGAGUCAGGAUAUCAUAAUAAAUGCAGUGAUGUUGCAAUAACCAGUACAAAAGUGCUGGAUUGAGAAGGGACUUGGUACU [FmnBS 5 #SwitchBubble #StaticStem],99,126,126,119,112
UGUACCGAGUCAGGAUAUGGCCGGAAACGGAAUAACCAGUGAUGUUGGAAUAAAUGGCGAAAGCCUCCAGAAGGGACUUGGUACU [FmnBS 18 #SwitchBubble #StaticStem #DoubleMagnetSystem],158,213,211,212,185
